From article PMC10398351 (2023)

Experiments:
Assay in all cases: SPR
[1] = target: MUC1-ST (4) (UniProt P15941, ST antigen (Neu5Acα2,3Galβ1,3GalNAcα) on the Thr of the Asp-Thr-Arg-Pro moiety)
[2] = target: MUC1 TRD-Tn (3) (UniProt P15941, Tn antigen (GalNAcα) on the Thr of the Asp-Thr-Arg-Pro moiety)
[3] = target: non-glycosylated MUC1 TRD (2) (UniProt P15941)
Chain of non-glycosylated MUC1 TRD (2) (P15941 whole entry, looked up): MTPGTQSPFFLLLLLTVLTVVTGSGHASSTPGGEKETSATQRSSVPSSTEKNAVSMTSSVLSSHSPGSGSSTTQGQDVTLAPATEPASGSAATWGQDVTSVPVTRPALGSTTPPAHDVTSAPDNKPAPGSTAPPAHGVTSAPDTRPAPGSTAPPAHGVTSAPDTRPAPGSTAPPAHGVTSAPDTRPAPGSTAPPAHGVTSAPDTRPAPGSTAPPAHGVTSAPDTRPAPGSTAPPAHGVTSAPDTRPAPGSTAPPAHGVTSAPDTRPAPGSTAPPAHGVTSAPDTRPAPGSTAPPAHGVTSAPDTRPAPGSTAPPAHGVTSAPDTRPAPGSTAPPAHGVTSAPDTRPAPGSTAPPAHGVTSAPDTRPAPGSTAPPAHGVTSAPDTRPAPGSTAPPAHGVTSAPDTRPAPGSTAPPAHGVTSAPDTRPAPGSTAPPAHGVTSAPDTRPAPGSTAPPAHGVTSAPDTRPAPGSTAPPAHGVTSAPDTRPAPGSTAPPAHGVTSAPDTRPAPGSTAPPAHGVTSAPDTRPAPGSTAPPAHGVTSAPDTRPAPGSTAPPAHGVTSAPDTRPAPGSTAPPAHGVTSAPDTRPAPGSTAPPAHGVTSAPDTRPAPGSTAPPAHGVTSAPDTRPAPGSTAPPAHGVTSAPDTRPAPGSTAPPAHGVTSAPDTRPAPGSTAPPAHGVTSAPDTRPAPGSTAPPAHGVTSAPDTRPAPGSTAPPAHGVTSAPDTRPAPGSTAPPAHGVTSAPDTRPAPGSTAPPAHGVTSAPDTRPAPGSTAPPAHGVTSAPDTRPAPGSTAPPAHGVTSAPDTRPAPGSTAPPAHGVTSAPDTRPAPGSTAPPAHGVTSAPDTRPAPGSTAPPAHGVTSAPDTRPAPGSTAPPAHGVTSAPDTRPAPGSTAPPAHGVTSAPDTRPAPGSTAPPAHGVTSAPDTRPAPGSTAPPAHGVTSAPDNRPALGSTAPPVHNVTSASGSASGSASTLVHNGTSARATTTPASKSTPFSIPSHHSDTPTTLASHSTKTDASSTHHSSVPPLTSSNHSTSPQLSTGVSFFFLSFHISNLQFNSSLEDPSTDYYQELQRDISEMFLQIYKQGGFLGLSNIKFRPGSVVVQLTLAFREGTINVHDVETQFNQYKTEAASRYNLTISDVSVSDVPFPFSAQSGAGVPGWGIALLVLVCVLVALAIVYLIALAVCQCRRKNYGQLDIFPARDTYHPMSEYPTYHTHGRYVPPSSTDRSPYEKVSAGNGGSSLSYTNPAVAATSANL

Chain of MUC1-ST (4) (P15941 whole entry, looked up): as above
Chain of MUC1 TRD-Tn (3) (P15941 whole entry, looked up): as above

B1: SN-131 Fab (Fab, V domains shown)
VH: QVQLQQSGAELARPGASVKLSCKASGYTFTNYGLSWVKQRTGQGLEWIGENHPGSGIIYHNEKFRGKATLTADKSSSTAYVQLSSLTSEDSAVYFCARSSGTRGFAYWGQGTLVTVSA
VL: DVLMTQTPLSLPVSLGDQASISCRSSQSIVHSNGNTYLEWYLQKPGQSPKLLIYKVSNRFSGVPDRFSGSGSGTDFTLKISRVEAEDLGVYYCFQGSHGPWTFGGGTKLEIK
koff [1]: 0.000456 s⁻¹
koff [2]: 0.00144 s⁻¹
Kd [3]: 10.8 µM
koff [3]: 0.00225 s⁻¹
